Common to all, as to assay: cell-based or functional assay
The target of test [1] is T1, hIL-12 receptor signaling complex (hIL-12Rβ1 and hIL-12Rβ2) (human, UniProt P42701 24-662; Q99665 24-862).
Test [2] concerns the target T1, hIL-12 receptor signaling complex …. The source holds these as a separate data set.
Test [3] has the same target. The source holds these as a separate data set.
For test [4] the target is unchanged. The source holds these as a separate data set.

T1 sequence (Q99665 24-862, chain 2 of 2, other chains not shown): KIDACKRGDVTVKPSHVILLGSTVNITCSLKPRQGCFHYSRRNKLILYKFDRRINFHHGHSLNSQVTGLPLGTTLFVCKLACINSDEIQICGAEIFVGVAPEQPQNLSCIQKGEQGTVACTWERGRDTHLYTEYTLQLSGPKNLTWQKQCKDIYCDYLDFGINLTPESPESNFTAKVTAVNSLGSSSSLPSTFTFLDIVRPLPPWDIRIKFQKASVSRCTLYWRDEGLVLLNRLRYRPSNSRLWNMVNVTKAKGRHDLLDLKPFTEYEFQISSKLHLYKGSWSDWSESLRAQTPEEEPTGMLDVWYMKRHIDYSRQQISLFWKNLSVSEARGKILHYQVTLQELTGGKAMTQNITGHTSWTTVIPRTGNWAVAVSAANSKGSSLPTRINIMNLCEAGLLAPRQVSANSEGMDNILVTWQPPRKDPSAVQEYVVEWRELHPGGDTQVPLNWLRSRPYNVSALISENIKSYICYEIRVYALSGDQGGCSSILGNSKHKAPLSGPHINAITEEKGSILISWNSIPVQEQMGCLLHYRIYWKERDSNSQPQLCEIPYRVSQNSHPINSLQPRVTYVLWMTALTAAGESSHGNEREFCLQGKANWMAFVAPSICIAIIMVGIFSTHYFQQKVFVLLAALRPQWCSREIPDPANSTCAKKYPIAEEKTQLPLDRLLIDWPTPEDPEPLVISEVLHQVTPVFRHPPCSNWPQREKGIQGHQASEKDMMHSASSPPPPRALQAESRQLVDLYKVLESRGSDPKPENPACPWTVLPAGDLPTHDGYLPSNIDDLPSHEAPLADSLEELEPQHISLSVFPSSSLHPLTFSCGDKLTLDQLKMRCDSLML

B1: human IL12 mutein, hIL-12p40 E81A, F82A with hIL-12p35-8X His (ligand)
chain 1: IWELKKDVYVVELDWYPDAPGEMVVLTCDTPEEDGITWTLDQSSEVLGSGKTLTIQVKAAGDAGQYTCHKGGEVLSHSLLLLHKKEDGIWSTDILKDQKEPKNKTFLRCEAKNYSGRFTCWWLTTISTDLTFSVKSSRGSSDPQGVTCGAATLSAERVRGDNKEYEYSVECQEDSACPAAEESLPIEVMVDAVHKLKYENYTSSFFIRDIIKPDPPKNLQLKPLKNSRQVEVSWEYPDTWSTPHSYFSLTFCVQVQGKSKREKKDRVFTDKTSATVICRKNASISVRAQDRYYSSSWSEWASVPCS
chain 2: RNLPVATPDPGMFPCLHHSQNLLRAVSNMLQKARQTLEFYPCTSEEIDHEDITKDKTSTVEACLPLELTKNESCLNSRETSFITNGSCLASRKTSFMMALCLSSIYEDLKMYQVEFKTMNAKLLMDPKRQIFLDQNMLAVIDELMQALNFNSETVPQKSSLEEPDFYKTKIKLCILLHAFRIRAVTIDRVMSYLNASGSHHHHHHHH
In the case of B1, in test [1], the “IFNy [gMFI] EC50, CD8+ T Cells” value worked out at 0.41 nM; the “IFNy [gMFI] EC50, CD56hi NK Cells” value was 2.56 nM; the “IFNy [gMFI] Emax, CD8+ T Cells” value amounted to 17100 gMFI; the “IFNy [gMFI] Emax, CD56hi NK Cells” value was determined as 187000 gMFI. Besides, in test [2], the “pSTAT4 [gMFI] EC50, CD8+ T Cells” value is 6.6 nM; the “pSTAT4 [gMFI] EC50, CD56hi NK Cells” value was 5.94 nM; the “pSTAT4 [gMFI] Emax, CD8+ T Cells” value came to 100000 gMFI; the “pSTAT4 [gMFI] Emax, CD56hi NK Cells” value is 25000 gMFI. Also, in test [3], the “IFNy [%+] EC50, CD8+ T Cells” value was 0.095 nM; the “IFNy [%+] EC50, CD56hi NK Cells” value is 0.02 nM; the “IFNy [%+] Emax, CD8+ T Cells” value turned out to be 81.5 %+; the “IFNy [%+] Emax, CD56hi NK Cells” value is 94 %+. In test [4], the “pSTAT4 [%+] EC50, CD8+ T Cells” value worked out at 1.13 nM; the “pSTAT4 [%+] EC50, CD56hi NK Cells” value was 1.85 nM; the “pSTAT4 [%+] Emax, CD8+ T Cells” value came out at 80.2 %+; the “pSTAT4 [%+] Emax, CD56hi NK Cells” value is 85.2 %+.

B2: human IL12 mutein, hIL-12p40 E81L, F82A with hIL-12p35-8X His (ligand)
chain 1: IWELKKDVYVVELDWYPDAPGEMVVLTCDTPEEDGITWTLDQSSEVLGSGKTLTIQVKLAGDAGQYTCHKGGEVLSHSLLLLHKKEDGIWSTDILKDQKEPKNKTFLRCEAKNYSGRFTCWWLTTISTDLTFSVKSSRGSSDPQGVTCGAATLSAERVRGDNKEYEYSVECQEDSACPAAEESLPIEVMVDAVHKLKYENYTSSFFIRDIIKPDPPKNLQLKPLKNSRQVEVSWEYPDTWSTPHSYFSLTFCVQVQGKSKREKKDRVFTDKTSATVICRKNASISVRAQDRYYSSSWSEWASVPCS
chain 2: RNLPVATPDPGMFPCLHHSQNLLRAVSNMLQKARQTLEFYPCTSEEIDHEDITKDKTSTVEACLPLELTKNESCLNSRETSFITNGSCLASRKTSFMMALCLSSIYEDLKMYQVEFKTMNAKLLMDPKRQIFLDQNMLAVIDELMQALNFNSETVPQKSSLEEPDFYKTKIKLCILLHAFRIRAVTIDRVMSYLNASGSHHHHHHHH
Take B2: in test [1], the “IFNy [gMFI] EC50, CD8+ T Cells” value is 0.39 nM; the “IFNy [gMFI] EC50, CD56hi NK Cells” value amounted to 0.47 nM; the “IFNy [gMFI] Emax, CD8+ T Cells” value stood at 11500 gMFI; the “IFNy [gMFI] Emax, CD56hi NK Cells” value amounted to 223000 gMFI. In test [3], the “IFNy [%+] EC50, CD8+ T Cells” value worked out at 0.185 nM; the “IFNy [%+] EC50, CD56hi NK Cells” value turned out to be 0.003 nM; the “IFNy [%+] Emax, CD8+ T Cells” value came out at 68 %+; the “IFNy [%+] Emax, CD56hi NK Cells” value amounted to 94.8 %+.

B3: human IL12 mutein, hIL-12p40 E81I, F82A with hIL-12p35-8X His (ligand)
chain 1: IWELKKDVYVVELDWYPDAPGEMVVLTCDTPEEDGITWTLDQSSEVLGSGKTLTIQVKIAGDAGQYTCHKGGEVLSHSLLLLHKKEDGIWSTDILKDQKEPKNKTFLRCEAKNYSGRFTCWWLTTISTDLTFSVKSSRGSSDPQGVTCGAATLSAERVRGDNKEYEYSVECQEDSACPAAEESLPIEVMVDAVHKLKYENYTSSFFIRDIIKPDPPKNLQLKPLKNSRQVEVSWEYPDTWSTPHSYFSLTFCVQVQGKSKREKKDRVFTDKTSATVICRKNASISVRAQDRYYSSSWSEWASVPCS
chain 2: RNLPVATPDPGMFPCLHHSQNLLRAVSNMLQKARQTLEFYPCTSEEIDHEDITKDKTSTVEACLPLELTKNESCLNSRETSFITNGSCLASRKTSFMMALCLSSIYEDLKMYQVEFKTMNAKLLMDPKRQIFLDQNMLAVIDELMQALNFNSETVPQKSSLEEPDFYKTKIKLCILLHAFRIRAVTIDRVMSYLNASGSHHHHHHHH
Take B3: in test [1], the “IFNy [gMFI] EC50, CD8+ T Cells” value is 0.55 nM; the “IFNy [gMFI] EC50, CD56hi NK Cells” value was 1.48 nM; the “IFNy [gMFI] Emax, CD8+ T Cells” value was found to be 11700 gMFI; the “IFNy [gMFI] Emax, CD56hi NK Cells” value is 313000 gMFI. In test [3], the “IFNy [%+] EC50, CD8+ T Cells” value was determined as 0.37 nM; the “IFNy [%+] EC50, CD56hi NK Cells” value was determined as 0.061 nM; the “IFNy [%+] Emax, CD8+ T Cells” value is 68.3 %+; the “IFNy [%+] Emax, CD56hi NK Cells” value was determined as 93.7 %+.

B4: human IL12 mutein, hIL-12p40 E81K, F82A with hIL-12p35-8X His (ligand)
chain 1: IWELKKDVYVVELDWYPDAPGEMVVLTCDTPEEDGITWTLDQSSEVLGSGKTLTIQVKKAGDAGQYTCHKGGEVLSHSLLLLHKKEDGIWSTDILKDQKEPKNKTFLRCEAKNYSGRFTCWWLTTISTDLTFSVKSSRGSSDPQGVTCGAATLSAERVRGDNKEYEYSVECQEDSACPAAEESLPIEVMVDAVHKLKYENYTSSFFIRDIIKPDPPKNLQLKPLKNSRQVEVSWEYPDTWSTPHSYFSLTFCVQVQGKSKREKKDRVFTDKTSATVICRKNASISVRAQDRYYSSSWSEWASVPCS
chain 2: RNLPVATPDPGMFPCLHHSQNLLRAVSNMLQKARQTLEFYPCTSEEIDHEDITKDKTSTVEACLPLELTKNESCLNSRETSFITNGSCLASRKTSFMMALCLSSIYEDLKMYQVEFKTMNAKLLMDPKRQIFLDQNMLAVIDELMQALNFNSETVPQKSSLEEPDFYKTKIKLCILLHAFRIRAVTIDRVMSYLNASGSHHHHHHHH
In the case of B4, in test [1], the “IFNy [gMFI] EC50, CD8+ T Cells” value came out at 0.51 nM; the “IFNy [gMFI] EC50, CD56hi NK Cells” value worked out at 0.62 nM; the “IFNy [gMFI] Emax, CD8+ T Cells” value is 13200 gMFI; the “IFNy [gMFI] Emax, CD56hi NK Cells” value is 123000 gMFI. Also, in test [3], the “IFNy [%+] EC50, CD8+ T Cells” value is 0.305 nM; the “IFNy [%+] EC50, CD56hi NK Cells” value was found to be 0.046 nM; the “IFNy [%+] Emax, CD8+ T Cells” value is 78.5 %+; the “IFNy [%+] Emax, CD56hi NK Cells” value is 93.7 %+.

B5: human IL12 mutein, hIL-12p40 E81A, F82A, K106A with hIL-12p35-8X His (ligand)
chain 1: IWELKKDVYVVELDWYPDAPGEMVVLTCDTPEEDGITWTLDQSSEVLGSGKTLTIQVKAAGDAGQYTCHKGGEVLSHSLLLLHAKEDGIWSTDILKDQKEPKNKTFLRCEAKNYSGRFTCWWLTTISTDLTFSVKSSRGSSDPQGVTCGAATLSAERVRGDNKEYEYSVECQEDSACPAAEESLPIEVMVDAVHKLKYENYTSSFFIRDIIKPDPPKNLQLKPLKNSRQVEVSWEYPDTWSTPHSYFSLTFCVQVQGKSKREKKDRVFTDKTSATVICRKNASISVRAQDRYYSSSWSEWASVPCS
chain 2: RNLPVATPDPGMFPCLHHSQNLLRAVSNMLQKARQTLEFYPCTSEEIDHEDITKDKTSTVEACLPLELTKNESCLNSRETSFITNGSCLASRKTSFMMALCLSSIYEDLKMYQVEFKTMNAKLLMDPKRQIFLDQNMLAVIDELMQALNFNSETVPQKSSLEEPDFYKTKIKLCILLHAFRIRAVTIDRVMSYLNASGSHHHHHHHH
In the case of B5, in test [1], the “IFNy [gMFI] EC50, CD8+ T Cells” value was determined as 1.4 nM; the “IFNy [gMFI] EC50, CD56hi NK Cells” value was 2.8 nM; the “IFNy [gMFI] Emax, CD8+ T Cells” value came out at 15000 gMFI; the “IFNy [gMFI] Emax, CD56hi NK Cells” value worked out at 140000 gMFI. In addition, in test [2], the “pSTAT4 [gMFI] EC50, CD8+ T Cells” value was found to be 9.75 nM; the “pSTAT4 [gMFI] EC50, CD56hi NK Cells” value was determined as 156 nM; the “pSTAT4 [gMFI] Emax, CD8+ T Cells” value was 86900 gMFI; the “pSTAT4 [gMFI] Emax, CD56hi NK Cells” value was 35700 gMFI. In test [3], the “IFNy [%+] EC50, CD8+ T Cells” value came out at 0.533 nM; the “IFNy [%+] EC50, CD56hi NK Cells” value was 0.079 nM; the “IFNy [%+] Emax, CD8+ T Cells” value worked out at 78.4 %+; the “IFNy [%+] Emax, CD56hi NK Cells” value is 90.8 %+. In test [4], the “pSTAT4 [%+] EC50, CD8+ T Cells” value was determined as 1.86 nM; the “pSTAT4 [%+] EC50, CD56hi NK Cells” value was 4.03 nM; the “pSTAT4 [%+] Emax, CD8+ T Cells” value worked out at 77.7 %+; the “pSTAT4 [%+] Emax, CD56hi NK Cells” value was 86.9 %+.

B6: human IL12 mutein, hIL-12p40 E81V, F82A with hIL-12p35-8X His (ligand)
chain 1: IWELKKDVYVVELDWYPDAPGEMVVLTCDTPEEDGITWTLDQSSEVLGSGKTLTIQVKVAGDAGQYTCHKGGEVLSHSLLLLHKKEDGIWSTDILKDQKEPKNKTFLRCEAKNYSGRFTCWWLTTISTDLTFSVKSSRGSSDPQGVTCGAATLSAERVRGDNKEYEYSVECQEDSACPAAEESLPIEVMVDAVHKLKYENYTSSFFIRDIIKPDPPKNLQLKPLKNSRQVEVSWEYPDTWSTPHSYFSLTFCVQVQGKSKREKKDRVFTDKTSATVICRKNASISVRAQDRYYSSSWSEWASVPCS
chain 2: RNLPVATPDPGMFPCLHHSQNLLRAVSNMLQKARQTLEFYPCTSEEIDHEDITKDKTSTVEACLPLELTKNESCLNSRETSFITNGSCLASRKTSFMMALCLSSIYEDLKMYQVEFKTMNAKLLMDPKRQIFLDQNMLAVIDELMQALNFNSETVPQKSSLEEPDFYKTKIKLCILLHAFRIRAVTIDRVMSYLNASGSHHHHHHHH
Turning to B6, in test [1], the “IFNy [gMFI] EC50, CD8+ T Cells” value came out at 0.38 nM; the “IFNy [gMFI] EC50, CD56hi NK Cells” value worked out at 0.5 nM; the “IFNy [gMFI] Emax, CD8+ T Cells” value was 10600 gMFI; the “IFNy [gMFI] Emax, CD56hi NK Cells” value was 194000 gMFI. For the same molecule, in test [3], the “IFNy [%+] EC50, CD8+ T Cells” value came out at 0.226 nM; the “IFNy [%+] EC50, CD56hi NK Cells” value was found to be 0.026 nM; the “IFNy [%+] Emax, CD8+ T Cells” value was determined as 67.4 %+; the “IFNy [%+] Emax, CD56hi NK Cells” value was found to be 94.6 %+.

Source of the values: patent publication US20250388640A1 (SYNTHEKINE, published 2025).
